This note sets out measurements from patent US20080131910A1 (LUDWIG INSTITUTE FOR CANCER RESEARCH, published 2008).

The target in assay [1] is T1, ALK-6 (activin receptor like kinase 6), mouse (mouse, UniProt P36898 14-502).
T1 construct: Expressed from cDNA in COS-1 cells; also called mALK-6; clone ME-6
As to the kind of experiment: affinity cross-linking followed by immunoprecipitation, COS-1 cells co-transfected with ActR-II and the ALK.

For assay [2], the target named is T2, ALK-5 (activin receptor like kinase 5), human TGF-β type I receptor (human, UniProt P36897 25-503).
T2 construct: Expressed from cDNA in COS-1 cells and PAE cells (PAE/TβR-I), or endogenous in human cell lines (AG1518, A549, HSC-2, HUVEC); also called hALK-5; clone EMBLA
T2 sequence: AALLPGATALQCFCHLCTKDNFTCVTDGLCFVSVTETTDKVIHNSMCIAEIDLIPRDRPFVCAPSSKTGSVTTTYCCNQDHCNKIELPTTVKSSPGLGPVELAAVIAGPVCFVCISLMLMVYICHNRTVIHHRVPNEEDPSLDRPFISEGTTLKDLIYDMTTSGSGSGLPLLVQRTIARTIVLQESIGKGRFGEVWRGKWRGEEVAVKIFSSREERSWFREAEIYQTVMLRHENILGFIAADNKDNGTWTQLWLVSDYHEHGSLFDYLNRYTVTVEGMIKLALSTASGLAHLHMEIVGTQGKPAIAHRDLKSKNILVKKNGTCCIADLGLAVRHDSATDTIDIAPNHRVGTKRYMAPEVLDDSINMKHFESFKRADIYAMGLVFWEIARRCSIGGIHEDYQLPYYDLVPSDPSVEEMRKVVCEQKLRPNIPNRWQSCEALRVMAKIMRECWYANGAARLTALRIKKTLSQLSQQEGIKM
Described as above.

T1 sequence (P36898 14-502 limits assumed): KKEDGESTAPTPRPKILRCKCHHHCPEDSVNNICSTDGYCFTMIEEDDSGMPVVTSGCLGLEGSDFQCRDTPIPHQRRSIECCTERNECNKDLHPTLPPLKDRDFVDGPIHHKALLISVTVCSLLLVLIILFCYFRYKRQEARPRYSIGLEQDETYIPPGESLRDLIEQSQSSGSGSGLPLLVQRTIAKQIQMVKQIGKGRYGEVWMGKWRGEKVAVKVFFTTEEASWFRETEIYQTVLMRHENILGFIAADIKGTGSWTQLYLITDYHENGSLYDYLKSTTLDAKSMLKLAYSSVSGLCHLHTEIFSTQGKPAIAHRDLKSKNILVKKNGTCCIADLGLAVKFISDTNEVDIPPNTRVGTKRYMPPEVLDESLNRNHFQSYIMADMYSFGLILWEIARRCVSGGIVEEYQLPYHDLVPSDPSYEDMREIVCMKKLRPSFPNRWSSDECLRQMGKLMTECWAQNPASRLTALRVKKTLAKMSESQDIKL

B1: Recombinant human activin A (ligand, UniProt P08476 311-426, looked up)
chain: GLECDGKVNICCKKQFFVSFKDIGWNDWIIAPSGYHANYCEGECPSHIAGTSGSSLSFHSTVINHYRMRGHSPFANLKSCCVPTKLRPMSMLYYDDGQNIIKKDIQNMIVEECGCS
modifications: 125I-iodinated (chloramine T method)
Turning to B1, the binding result in assay [1] and in assay [2] was “binds” throughout.
